Like-named read-outs stand apart in the source and are kept apart here.
Experiments:
Test in all cases: ITC; iTC200, 25°C, 20 mM sodium phosphate, pH 7.4, 150 mM NaCl; both partners dialysed against the same buffer
[1] = molecular target: Hsa NCOA2 CID (TIF2) (human)
Hsa ETS-2 PNT (human) = Hsa ETS-2 PNT (human) (UniProt P15036)
[2] = molecular target: Hsa NCOA1 CID (SRC1) (human)
[3] = molecular target: Hsa NCOA3 CID (ACTR) (human) (UniProt Q9Y6Q9)
Hsa p53TAD (human) = Hsa p53TAD (human) (UniProt P04637)
Chain of Hsa p53TAD (human) (P04637 1-61): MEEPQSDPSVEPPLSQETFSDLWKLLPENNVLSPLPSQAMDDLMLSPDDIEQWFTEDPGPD

Hsa NCOA3 CID (ACTR) = molecular target: T1, Hsa NCOA3 CID (ACTR) (human, UniProt Q9Y6Q9-3 1040-1081); conditions: both partners purified
T1 construct: numbers count on: splice variant NCOA3-002 (ENST00000371997); pRSET vector; also called human NCOA3 CID; ACTR CID
T1 chain (looked up): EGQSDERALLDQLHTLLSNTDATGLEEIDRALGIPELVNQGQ

Hsa p53TAD = molecular target: T2, Hsa p53TAD (human, UniProt P04637 1-61); conditions: both partners purified
T2 construct: source: expressed and purified as previously described (Dogan et al., 2015)
T2 sequence (P04637 1-61): as the sequence (P04637 1-61) above

Hsa ETS-2 PNT = molecular target: T3, Hsa ETS-2 PNT (human, UniProt P15036 85-170); conditions: both partners purified
T3 construct: pointed (PNT) domain of human ETS-2; also called globular pointed (PNT) domain from human ETS-2; PNT domain of ETS-2; source: expressed and purified as previously described (Dogan et al., 2015)
T3 sequence (looked up): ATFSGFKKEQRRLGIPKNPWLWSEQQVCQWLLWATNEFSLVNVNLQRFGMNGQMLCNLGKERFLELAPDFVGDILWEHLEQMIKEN

1R CID = molecular target: 1R CID
Fish/Tetrapod NCOA3 CID = molecular target: Fish/Tetrapod NCOA3 CID
[4] = molecular target: Hsa NCOA1 CID (SRC1) (human); remark: listed apart in the source
Target sequence in this assay (Q15788 1040-1081): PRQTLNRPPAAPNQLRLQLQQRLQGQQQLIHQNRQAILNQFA

[5] = molecular target: Hsa NCOA2 CID (TIF2) (human); remark: listed apart in the source
1R CID G1080S = molecular target: 1R CID G1080S
1R CID S1058N = molecular target: 1R CID S1058N
1R CID S1078Q = molecular target: 1R CID S1078Q
[6] = molecular target: T4, Hsa ETS-2 PNT (human), P15036
T4 chain: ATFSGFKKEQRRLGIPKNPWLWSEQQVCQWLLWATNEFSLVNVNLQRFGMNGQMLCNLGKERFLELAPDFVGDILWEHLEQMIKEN

Molecule: Hsa CREBBP NCBD Y2108Q (from UniProt Q92793 2062-2109) (domain or fragment)
- Kd [1]: 210 nM

Molecule: Hsa p300 NCBD (domain or fragment)
- Kd (Hsa ETS-2 PNT (human)): 1500 nM
- Kd [2]: 180 nM
- Kd [1]: 71 nM
- Kd [3]: 110 nM
- Kd (Hsa p53TAD (human)): 9.2 µM

Molecule: Pma NCBD (domain or fragment)
- Kd (Hsa ETS-2 PNT (human)): 1000 nM
- Kd [2]: 190 nM
- Kd [1]: 44 nM
- Kd [3]: 230 nM

Molecule: Hsa CREBBP NCBD (from UniProt Q92793 2062-2109) (domain or fragment)
- Kd [2]: 330 nM
- Kd [1]: 130 nM

Molecule: Hsa CREBBP NCBD A2106Q (from UniProt Q92793 2062-2109) (domain or fragment)
- Kd [1]: 100 nM

Molecule: Dmel NCBD (domain or fragment)
- Kd [2]: 5200 nM
- Kd [1]: 22000 nM
- Kd [3]: 37000 nM

Molecule: Hsa CREBBP NCBD A2106Q/Y2108Q (from UniProt Q92793 2062-2109) (domain or fragment)
- Kd [1]: 220 nM

B1: Hsa CREBBP NCBD (domain or fragment, human)
chain: GSISPSALQDLLRTLKSPSSPQQQQQVLNILKSNPQLMAAFIKQRTAKYV
notes: Gly-Ser left at the N-terminus from the expression construct; NCBD domain of human CREBBP; pRSET vector; also called human CREBBP NCBD
- Kd (Hsa NCOA3 CID (ACTR)): 350 nM
- Kd (Hsa p53TAD): 84 µM
- Kd (Hsa ETS-2 PNT): 760 nM
- Kd (1R CID): 380 nM

Molecule: ITPGALQDLLRTLKSPSSPQQQQQVLNILKSNPHLMAAFIKQRTAKYQ (domain or fragment, modifications not checked) [Dre CREBBP NCBD]
- Kd (Fish/Tetrapod NCOA3 CID): 570 nM
- Kd [4]: 290 nM
- Kd [5]: 230 nM

Molecule: IPPNALQDLLRTLRSPSSPQQQQQVLNILKSNPQLMAAFIKQRAAKYQ (domain or fragment, modifications not checked) [1R/2R NCBD]
- Kd (1R CID): 200 nM
- Kd (1R CID G1080S): 240 nM
- Kd (1R CID S1058N): 220 nM
- Kd (1R CID S1078Q): 250 nM
- Kd [6]: 850 nM
- Kd [4]: 110 nM
- Kd [5]: 45 nM

Molecule: IPPNALQDLLRTLKSPSSPQQQQQVLNILKSNPQLMAAFIKQRTAKYQ (domain or fragment, modifications not checked) [Fish/Tetrapod CREBBP NCBD]
- Kd (Fish/Tetrapod NCOA3 CID): 410 nM
- Kd [6]: 1300 nM

Molecule: IPPSALQDLLRTLRSPSSPQQQQQVLNILKSNPQLMAAFIKQRAARYQ (domain or fragment, modifications not checked) [1R/2R NCBD N2065S K2107R]
- Kd (1R CID): 170 nM
- Kd (1R CID G1080S): 130 nM

Molecule: IPPSALQDLLRTLRSPSSPQQQQQVLNILKSNPQLMAAFIKQRAAKYQ (domain or fragment, modifications not checked) [1R/2R NCBD N2065S]
- Kd (1R CID): 130 nM
